Reference: paper PMC12658067

Assays:
[1] = target: M64L mutant of T7 helicase gp4 (T7 gp4A') (bacteriophage T7) (UniProt P03692)
[2] = target: C-tail deletion mutant of T7 gp4A' with 17 C-terminal amino acid residues deleted (gp4A' ΔCt) (bacteriophage T7) (UniProt P03692)
[3] = target: C-tail deletion mutant of T7 gp4A' with 17 C-terminal amino acid residues deleted (gp4A' ΔCt) (bacteriophage T7) (UniProt P03692); remark: listed apart in the source

fork regression during stalling under torsion (angular optical trap), WT replisome, mean fork position over a minute [1] [bp] | fork regression during stalling under torsion (angular optical trap), ΔCt replisome, mean fork position over a minute [2] [bp] | fork regression during stalling under torsion (angular optical trap), ΔCt exo- replisome, mean fork position over a minute [3] [bp] | Substance
80 | 240 |  | Wild-type T7 gp5 DNA polymerase complexed with E. coli thioredoxin (from UniProt P00581 1-704; P0AA25 1-109)
 |  | 340 | Exonuclease deficient mutant of T7 gp5 DNA polymerase (D5A, E7A) complexed with E. coli thioredoxin (from UniProt P00581 1-704; P0AA25 1-109)
